Experimental data from US20230357348A1 (AstraZeneca / MedImmune, published 2023).
Starred links: 1 amine or outer side, 2 acyl side, 3 side chain; linkers in the order of their positions; H or OH if unused. Non-standard residues stand in square brackets, D forms with d. Groups on a side chain read outwards from the residue. No end group written: not given here. *: point of attachment. C20 diacid = O=C(O)CCCCCCCCCCCCCCCCCCC(=O)*; C18 diacid = O=C(O)CCCCCCCCCCCCCCCCC(=O)*; γGlu = O=C(O)[C@H](CCC(=O)[*:2])N[*:1]; αMeF = C[C@](N)(Cc1ccccc1)C(=O)O; AEEA = NCCOCCOCC(=O)O; Aib = CC(C)(N)C(=O)O

Columns and labels:
[1] = target: human glucagon receptor (hGCGR) (human, UniProt P47871 26-477); assay: cell-based or functional assay
[2] = target: human GLP-1 receptor (hGLP-1R) (human, UniProt P43220 24-463); assay: cell-based or functional assay

Chain of human glucagon receptor (hGCGR) (P47871 26-477): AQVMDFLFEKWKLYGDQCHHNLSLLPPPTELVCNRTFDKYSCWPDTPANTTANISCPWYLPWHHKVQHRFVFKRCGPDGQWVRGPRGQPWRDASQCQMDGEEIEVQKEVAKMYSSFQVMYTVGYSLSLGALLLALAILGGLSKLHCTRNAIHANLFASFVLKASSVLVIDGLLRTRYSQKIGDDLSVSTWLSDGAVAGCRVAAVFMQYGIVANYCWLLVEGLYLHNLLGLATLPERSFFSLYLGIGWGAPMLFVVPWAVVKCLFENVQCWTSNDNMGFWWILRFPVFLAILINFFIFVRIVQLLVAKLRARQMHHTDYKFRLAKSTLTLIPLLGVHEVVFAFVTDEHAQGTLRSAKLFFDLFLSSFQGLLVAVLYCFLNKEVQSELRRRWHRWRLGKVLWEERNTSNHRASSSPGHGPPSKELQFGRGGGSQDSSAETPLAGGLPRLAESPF

Row | Binder | hGluc-R EC50 (pM) [1] | hGLP-1R EC50 (pM) [2]
1 | H[Aib]QGTFTSDVSK[αMeF]LDTK([AEEA-AEEA-γGlu-C20 diacid])RARDFVRWLL[Aib]TE-OH (N-terminus assumed; SMILES CC(C)C[C@H](NC(=O)[C@H](Cc1c[nH]c2ccccc12)NC(=O)[C@H](CCCNC(=N)N)NC(=O)[C@@H](NC(=O)[C@H](Cc1ccccc1)NC(=O)[C@H](CC(=O)O)NC(=O)[C@H](CCCNC(=N)N)NC(=O)[C@H](C)NC(=O)[C@H](CCCNC(=N)N)NC(=O)[C@H](CCCCNC(=O)COCCOCCNC(=O)COCCOCCNC(=O)CC[C@H](NC(=O)CCCCCCCCCCCCCCCCCCC(=O)O)C(=O)O)NC(=O)[C@@H](NC(=O)[C@H](CC(=O)O)NC(=O)[C@H](CC(C)C)NC(=O)[C@](C)(Cc1ccccc1)NC(=O)[C@H](CCCCN)NC(=O)[C@H](CO)NC(=O)[C@@H](NC(=O)[C@H](CC(=O)O)NC(=O)[C@H](CO)NC(=O)[C@@H](NC(=O)[C@H](Cc1ccccc1)NC(=O)[C@@H](NC(=O)CNC(=O)[C@H](CCC(N)=O)NC(=O)C(C)(C)NC(=O)[C@@H](N)Cc1c[nH]cn1)[C@@H](C)O)[C@@H](C)O)C(C)C)[C@@H](C)O)C(C)C)C(=O)N[C@@H](CC(C)C)C(=O)NC(C)(C)C(=O)N[C@H](C(=O)N[C@@H](CCC(=O)O)C(=O)O)[C@@H](C)O) [Peptide 492] | 374 pM | 212 pM
2 | H[Aib]QGTFTSDVSK[αMeF]LDTK([AEEA-AEEA-γGlu-C20 diacid])RAQDFVRWLLR[Aib]K-NH2 (N-terminus assumed; SMILES CC(C)C[C@H](NC(=O)[C@H](Cc1c[nH]c2ccccc12)NC(=O)[C@H](CCCNC(=N)N)NC(=O)[C@@H](NC(=O)[C@H](Cc1ccccc1)NC(=O)[C@H](CC(=O)O)NC(=O)[C@H](CCC(N)=O)NC(=O)[C@H](C)NC(=O)[C@H](CCCNC(=N)N)NC(=O)[C@H](CCCCNC(=O)COCCOCCNC(=O)COCCOCCNC(=O)CC[C@H](NC(=O)CCCCCCCCCCCCCCCCCCC(=O)O)C(=O)O)NC(=O)[C@@H](NC(=O)[C@H](CC(=O)O)NC(=O)[C@H](CC(C)C)NC(=O)[C@](C)(Cc1ccccc1)NC(=O)[C@H](CCCCN)NC(=O)[C@H](CO)NC(=O)[C@@H](NC(=O)[C@H](CC(=O)O)NC(=O)[C@H](CO)NC(=O)[C@@H](NC(=O)[C@H](Cc1ccccc1)NC(=O)[C@@H](NC(=O)CNC(=O)[C@H](CCC(N)=O)NC(=O)C(C)(C)NC(=O)[C@@H](N)Cc1c[nH]cn1)[C@@H](C)O)[C@@H](C)O)C(C)C)[C@@H](C)O)C(C)C)C(=O)N[C@@H](CC(C)C)C(=O)N[C@@H](CCCNC(=N)N)C(=O)NC(C)(C)C(=O)N[C@@H](CCCCN)C(N)=O) [Peptide 496] | 482 pM | 64.9 pM
3 | H[Aib]QGTFTSDVSK[αMeF]LDTK([AEEA-AEEA-γGlu-C18 diacid])RAQDFVRWLLR[Aib]K-NH2 (N-terminus assumed; SMILES CC(C)C[C@H](NC(=O)[C@H](Cc1c[nH]c2ccccc12)NC(=O)[C@H](CCCNC(=N)N)NC(=O)[C@@H](NC(=O)[C@H](Cc1ccccc1)NC(=O)[C@H](CC(=O)O)NC(=O)[C@H](CCC(N)=O)NC(=O)[C@H](C)NC(=O)[C@H](CCCNC(=N)N)NC(=O)[C@H](CCCCNC(=O)COCCOCCNC(=O)COCCOCCNC(=O)CC[C@H](NC(=O)CCCCCCCCCCCCCCCCC(=O)O)C(=O)O)NC(=O)[C@@H](NC(=O)[C@H](CC(=O)O)NC(=O)[C@H](CC(C)C)NC(=O)[C@](C)(Cc1ccccc1)NC(=O)[C@H](CCCCN)NC(=O)[C@H](CO)NC(=O)[C@@H](NC(=O)[C@H](CC(=O)O)NC(=O)[C@H](CO)NC(=O)[C@@H](NC(=O)[C@H](Cc1ccccc1)NC(=O)[C@@H](NC(=O)CNC(=O)[C@H](CCC(N)=O)NC(=O)C(C)(C)NC(=O)[C@@H](N)Cc1c[nH]cn1)[C@@H](C)O)[C@@H](C)O)C(C)C)[C@@H](C)O)C(C)C)C(=O)N[C@@H](CC(C)C)C(=O)N[C@@H](CCCNC(=N)N)C(=O)NC(C)(C)C(=O)N[C@@H](CCCCN)C(N)=O) [Peptide 495] | 380 pM | 23.2 pM
4 | H[Aib]QGTFTSDVSK[αMeF]LDTK([AEEA-AEEA-γGlu-C18 diacid])RAQDFVRWLLR[Aib]K-OH (N-terminus assumed; SMILES CC(C)C[C@H](NC(=O)[C@H](Cc1c[nH]c2ccccc12)NC(=O)[C@H](CCCNC(=N)N)NC(=O)[C@@H](NC(=O)[C@H](Cc1ccccc1)NC(=O)[C@H](CC(=O)O)NC(=O)[C@H](CCC(N)=O)NC(=O)[C@H](C)NC(=O)[C@H](CCCNC(=N)N)NC(=O)[C@H](CCCCNC(=O)COCCOCCNC(=O)COCCOCCNC(=O)CC[C@H](NC(=O)CCCCCCCCCCCCCCCCC(=O)O)C(=O)O)NC(=O)[C@@H](NC(=O)[C@H](CC(=O)O)NC(=O)[C@H](CC(C)C)NC(=O)[C@](C)(Cc1ccccc1)NC(=O)[C@H](CCCCN)NC(=O)[C@H](CO)NC(=O)[C@@H](NC(=O)[C@H](CC(=O)O)NC(=O)[C@H](CO)NC(=O)[C@@H](NC(=O)[C@H](Cc1ccccc1)NC(=O)[C@@H](NC(=O)CNC(=O)[C@H](CCC(N)=O)NC(=O)C(C)(C)NC(=O)[C@@H](N)Cc1c[nH]cn1)[C@@H](C)O)[C@@H](C)O)C(C)C)[C@@H](C)O)C(C)C)C(=O)N[C@@H](CC(C)C)C(=O)N[C@@H](CCCNC(=N)N)C(=O)NC(C)(C)C(=O)N[C@@H](CCCCN)C(=O)O) [Peptide 493] | 166 pM | 23.4 pM
5 | H[Aib]QGTFTSDVSK[αMeF]LDTK([AEEA-AEEA-γGlu-C20 diacid])RAQDFVRWLLR[Aib]K-OH [Peptide 494] | 212 pM | 98.7 pM

The next lines start with the values.

Row | hGluc-R EC50 (pM) [1] | hGLP-1R EC50 (pM) [2] | Binder
6 | 78.8 pM | 40.6 pM | H[Aib]QGTFTSDVSK[αMeF]LDTK([AEEA-AEEA-γGlu-C18 diacid])RAQDFVQWLLR[Aib]A-OH (N-terminus assumed; SMILES CC(C)C[C@H](NC(=O)[C@H](Cc1c[nH]c2ccccc12)NC(=O)[C@H](CCC(N)=O)NC(=O)[C@@H](NC(=O)[C@H](Cc1ccccc1)NC(=O)[C@H](CC(=O)O)NC(=O)[C@H](CCC(N)=O)NC(=O)[C@H](C)NC(=O)[C@H](CCCNC(=N)N)NC(=O)[C@H](CCCCNC(=O)COCCOCCNC(=O)COCCOCCNC(=O)CC[C@H](NC(=O)CCCCCCCCCCCCCCCCC(=O)O)C(=O)O)NC(=O)[C@@H](NC(=O)[C@H](CC(=O)O)NC(=O)[C@H](CC(C)C)NC(=O)[C@](C)(Cc1ccccc1)NC(=O)[C@H](CCCCN)NC(=O)[C@H](CO)NC(=O)[C@@H](NC(=O)[C@H](CC(=O)O)NC(=O)[C@H](CO)NC(=O)[C@@H](NC(=O)[C@H](Cc1ccccc1)NC(=O)[C@@H](NC(=O)CNC(=O)[C@H](CCC(N)=O)NC(=O)C(C)(C)NC(=O)[C@@H](N)Cc1c[nH]cn1)[C@@H](C)O)[C@@H](C)O)C(C)C)[C@@H](C)O)C(C)C)C(=O)N[C@@H](CC(C)C)C(=O)N[C@@H](CCCNC(=N)N)C(=O)NC(C)(C)C(=O)N[C@@H](C)C(=O)O) [Peptide 499]
7 | 170 pM | 156 pM | H[Aib]QGTFTSDVSK[αMeF]LDTK([AEEA-AEEA-γGlu-C20 diacid])RAQDFVRWLLR[Aib]A-OH (N-terminus assumed; SMILES CC(C)C[C@H](NC(=O)[C@H](Cc1c[nH]c2ccccc12)NC(=O)[C@H](CCCNC(=N)N)NC(=O)[C@@H](NC(=O)[C@H](Cc1ccccc1)NC(=O)[C@H](CC(=O)O)NC(=O)[C@H](CCC(N)=O)NC(=O)[C@H](C)NC(=O)[C@H](CCCNC(=N)N)NC(=O)[C@H](CCCCNC(=O)COCCOCCNC(=O)COCCOCCNC(=O)CC[C@H](NC(=O)CCCCCCCCCCCCCCCCCCC(=O)O)C(=O)O)NC(=O)[C@@H](NC(=O)[C@H](CC(=O)O)NC(=O)[C@H](CC(C)C)NC(=O)[C@](C)(Cc1ccccc1)NC(=O)[C@H](CCCCN)NC(=O)[C@H](CO)NC(=O)[C@@H](NC(=O)[C@H](CC(=O)O)NC(=O)[C@H](CO)NC(=O)[C@@H](NC(=O)[C@H](Cc1ccccc1)NC(=O)[C@@H](NC(=O)CNC(=O)[C@H](CCC(N)=O)NC(=O)C(C)(C)NC(=O)[C@@H](N)Cc1c[nH]cn1)[C@@H](C)O)[C@@H](C)O)C(C)C)[C@@H](C)O)C(C)C)C(=O)N[C@@H](CC(C)C)C(=O)N[C@@H](CCCNC(=N)N)C(=O)NC(C)(C)C(=O)N[C@@H](C)C(=O)O) [Peptide 498]
8 | 118 pM | 37.4 pM | H[Aib]QGTFTSDVSK[αMeF]LDTK([AEEA-AEEA-γGlu-C18 diacid])RAQDFVRWLLR[Aib]A-OH (N-terminus assumed; SMILES CC(C)C[C@H](NC(=O)[C@H](Cc1c[nH]c2ccccc12)NC(=O)[C@H](CCCNC(=N)N)NC(=O)[C@@H](NC(=O)[C@H](Cc1ccccc1)NC(=O)[C@H](CC(=O)O)NC(=O)[C@H](CCC(N)=O)NC(=O)[C@H](C)NC(=O)[C@H](CCCNC(=N)N)NC(=O)[C@H](CCCCNC(=O)COCCOCCNC(=O)COCCOCCNC(=O)CC[C@H](NC(=O)CCCCCCCCCCCCCCCCC(=O)O)C(=O)O)NC(=O)[C@@H](NC(=O)[C@H](CC(=O)O)NC(=O)[C@H](CC(C)C)NC(=O)[C@](C)(Cc1ccccc1)NC(=O)[C@H](CCCCN)NC(=O)[C@H](CO)NC(=O)[C@@H](NC(=O)[C@H](CC(=O)O)NC(=O)[C@H](CO)NC(=O)[C@@H](NC(=O)[C@H](Cc1ccccc1)NC(=O)[C@@H](NC(=O)CNC(=O)[C@H](CCC(N)=O)NC(=O)C(C)(C)NC(=O)[C@@H](N)Cc1c[nH]cn1)[C@@H](C)O)[C@@H](C)O)C(C)C)[C@@H](C)O)C(C)C)C(=O)N[C@@H](CC(C)C)C(=O)N[C@@H](CCCNC(=N)N)C(=O)NC(C)(C)C(=O)N[C@@H](C)C(=O)O) [Peptide 497]
